“Also recorded” adds a separate entry of the source.
Experiments:
ovariectomized mice [1] = experiment: Pulsed versus continuous (ALZET pump) RANKL in OVX mice; type: in vivo
Description: FIGS. 10A through 10E show the effect of delivering RANKL in pulses as opposed to a continuous exposure leads to its antiresorptive effect. 12 week old mice were treated either as sham-operated or OVX using pumps or pulsed. Two weeks post-surgery ALZET® pumps were implanted in the intraperitoneal cavity that contained either PBS or RANKL as indicated in the plots above. All groups were pulsed with equivalent dose of RANKL (0.125 mg/kg, pulsed twice 24 hrs. apart) or PBS as indicated in the plots. […] In FIG. 10B, Quantification across groups (6 mice/group).

ovariectomized mice [2] = experiment: Kinetics of a single low-dose RANKL treatment followed by serum CTX; type: in vivo; conditions: twice 24 hrs apart, 2 weeks post-OVX
Description: Food was withdrawn 6 to 10 hours prior to bleeding. Peripheral blood (100 to 200 μL) obtained via sub-mandibular vein, was allowed to clot for 2 hours at room temperature and serum collected by spinning down the cell pellet. Serum C-terminal telopeptide of type 1 collagen (serum CTX) was measured using ELISA according to the manufacturer's instructions (Immunodiagnostic Systems, Plc)
To assess the kinetics of a single treatment, C57BL/6J ovariectomized mice were treated with low-dose RANKL (administered twice 24 hrs apart, 2 weeks post-OVX) and then followed by serum CTX assay. […] In FIG. 11B, to assess whether multiple treatments are effective, sham-operated (Sx) or OVX 12-week old C57BL/6J mice were treated with low-dose RANKL (0.125 mg/kg) once per month or once with the bisphosphonate Zoledronate (ZA; 3 weeks post-OVX). 120 days post-OVX peripheral blood obtained by mandible bleeds was treated to remove RBCs (BD Pharmalyse) then 1 to 3×10^6 cells were plated per well in triplicate (6 mice/group). Media was collected after 36 hours of culturing and cytokine levels quantitated by multiplexed ELISA (Millipore).

[3] = system: FoxP3 induction in OT-I CD8 T-cells by osteoclasts; experiment: TcREG (FoxP3) induction in OT-I CD8 T-cells co-cultured with bone marrow-derived osteoclasts; type: cell-based, mice; conditions: 10 ng/ml or 20 ng/ml TNFα, OVA
Description: It was also determined that IL-17 and TNFα suppresses TcREG induction by osteoclasts. […] Another possibility is that loss of estrogen leads to increased production of the pro-inflammatory cytokines by T-cells that increase osteoclast activity. Without being limited to any method of operation, it is actually expected that in the presence of pro-inflammatory cytokines osteoclasts fail to induce TcREG. As estrogen depletion lead to greater number of osteoclasts because of a decreased Fas ligand expression, the loss of TcREG induction and increased osteoclast numbers would tip the balance towards increased osteoclast resorption and net bone loss. To test fir this possibility, OC-iTcREG induction was measured in the presence of IL-17 and TNFα. […] To understand the underlying mechanism of how TNFα affects osteoclasts' ability to induce TcREG, the signals provided by osteoclasts to induce FoxP3 in the CD8 T-cells were investigated along with if these signals were affected by […].
The most common and well-studied costimulatory signals on antigen-presenting cells are CD80 (B7.1) and CD86 (B7.2). As CD80/CD86 double knockout mice are commercially available, osteoclasts were generated from bone marrow precursors of these mice. The CD80/CD86 null osteoclasts (as well as wild-type controls) were then used to prime OT-I T-cells in the presence and absence of antigen. […] OT-I CD8 T-cells activated by CD80/CD86 null osteoclasts produced IL-6, IL-2 and IFN-γ to levels indistinguishable from wild-type mice (FIG. 4B). Having ruled out CD80/CD86 as the costimulatory molecules, an osteoclast microarray dataset was queried for other costimulatory molecules expressed by osteoclasts. Osteoclasts that express CD200 and c-Mer were found. The role of CD200 was chosen for testing based on the phenotype of CD200^−/− mice and the reported role for CD200 in regulating TcREG.
The most, well characterized regulator of FoxP3 in T-cells is TGFβ. It has been previously shown that neutralization or addition of TGFβ has no effect on the induction of TcREG. Therefore identification of other pathways that can regulate the FoxP3 promoter in T-cells was sought. A number of previous studies have identified that the Notch signaling contributes to FoxP3 induction. To test if Notch signaling is important for TcREG induction by osteoclasts, the γ-Secretase inhibitor DAPT was initially used. Ligation of the Notch receptor by its ligand leads to cleavage of Notch by γ-secretase. […] Next, we identified the Notch ligands expressed in osteoclasts using reverse-transcription followed by PCR. […] Of the four, the osteoclast-precursors (bone marrow cells treated with M-CSF but not RANKL) express all of the ligands except DLL4 (FIG. 5C). To assess the role of DLL4 in TcREG (soluble) DLL4-Fc was added to OT-I CD8 T-cells prior to co-culturing with osteoclasts. […] To assess the role of DLL4 in vivo the induction experiments as described in FIG. 1 were performed: GFP negative (polyclonal) CD8 T-cells were purified by cell sorting and transferred into OT-II Rag^−/− mice. Two hours prior to RANKL treatment, DLL4-Fc or a control IgG1-Fc, were injected intravenously into the recipient mice, As described for FIG. 1, RANKL (0.125 mg/kg) was then administered on two consecutive days.
DLL-4 expression is repressed in the presence of […] and IL-17 but can be de-repressed by RANKL. […]

atheroma plaque = experiment: Male LDLR-/- mice on western diet, pulsed low-dose RANKL; type: in vivo; conditions: 9 weeks
Description: FIGS. 22 and 23 extend the evaluation of the effect of pulse RANKL treatment to male LDLR mice. Surgery was, unnecessary in this case, so all mice were simply placed on the western diet at 10 weeks of age. Two weeks later one-half of the mice were treated with pulsed low-dose RANKL as contemplated elsewhere herein and the same group was treated again 6 weeks later. Time of treatment is indicated by the arrows in FIG. 22. […] All mice were sacrificed 9 weeks after the start of the experiment and plaque volumes were compared between the two groups.

B1: receptor activator of NF-κB ligand (protein, UniProt O35235 139-316, looked up)
Tumor necrosis factor ligand …: FSGAPAMMEGSWLDVAQRGKPEAQPFAHLTINAASIPSGSHKVTLSSWYHDRGWAKISNMTLSNGKLRVNQDGFYYLYANICFRHHETSGSVPTDYLQLMVYVVKTSIKIPSSHNLMKGGSTKNWSGNSEFHFYSINVGGFFKLRAGEEISIQVSNPSLLDPDQDATYFGAFKVQDID
modifications: GST tag
Which results are given for B1?
bone resorption (ovariectomized mice [1]; continuous delivery via osmotic pumps): led to increased bone resorption; TcREG induction (ovariectomized mice [1]; continuous exposure by pump, identical dose): did not induce TcREG; also recorded: No TcREG induction is observed; Bone volume (BV/TV) (ovariectomized mice [1]; delivered by pump): decreased; Bone volume (BV/TV) (ovariectomized mice [1]; pulsed): restored to levels observed in sham-operated mice; TEFF cells (ovariectomized mice [1]; pulsed): decrease in TEFF cells was only observed in mice pulsed with RANKL; bone resorption (ovariectomized mice [1]; pulsed): decreased levels of bone resorption were observed; TcREG induction (ovariectomized mice [1]; pulsed, 0.125 mg/kg twice 24 hrs apart): induced TcREG; time a single treatment is effective to limit bone loss / bone resorption (ovariectomized mice [2]; listed as low dose RANKL): approximately 28 days; time a single treatment is effective to limit bone loss / bone resorption (ovariectomized mice [2]; listed as low-dose RANKL): up to 30 days; restoration of TcREG induction by additional RANKL in the presence of TNFα [3]: restores induction of TcREG; also recorded: the induction of TcREG was also restored; plaque volumes (atheroma plaque): plaque volumes were reduced in the treated group; weight gain (atheroma plaque): weight gain in the treated mice was reduced
